Measurements published in US20130196320A1, “METHOD FOR IMPROVING CLEAVAGE OF DNA BY ENDONUCLEASE SENSITIVE TO METHYLATION” (CELLECTIS, priority 2010, published 2013).

Tests used:
[1] = test system: ADCY9.1 DNA target; assay: In vitro single turn over cleavage assay with ADCY9.1; assay type: biochemical
Procedure: FIG. 13: In vitro cleavage of unmethylated or methylated ADCY9.1 by ADCY9. A constant amount of ADCY9.1 duplex (50 nM) was incubated with an excess of ADCY9 (1.5 μM, final concentration) in the reaction buffer (10 mM Tris-HCl, 150 mM NaCl, pH8) at 37° C. Cleavage reaction was triggered by the addition of MgCl2 and then stopped after different time lengths by the addition of the stop buffer. This was followed by one hour of incubation at 37° C. to digest ADCY9 and release free DNA molecules. Cleaved and uncleaved DNA products were separated by PAGE using a TGX Any kD precast gel (Bio-Rad), stained with SYBR Green and then quantified using Quantity One software (Bio-Rad). Disappearance of substrate (uncleaved DNA) is plotted as a function of time.
To investigate the influence of C1234 methylation on the nuclease activity of I-Cre I, in vitro single turn over cleavage assays were performed with either unmethylated or methylated C1234 duplexes (unmethylated C1234 composed of SEQ ID NO: 31+SEQ ID NO: 32, C1234_Me full composed of SEQ ID NO: 35+SEQ ID NO: 38, C1234_Me-6a/-5b composed of SEQ ID NO: 33+SEQ ID NO: 36, C1234_Me-3a/-2b composed of SEQ ID NO: 34+SEQ ID NO: 37, C1234_Me-3a composed of SEQ ID NO: 34+SEQ ID NO: 32, C1234_Me-2b composed of SEQ ID NO: 31+SEQ ID NO: 37, respectively). A constant amount of C1234 duplex (50 nM) was incubated with an excess of I-Cre I (1.5 μM, final concentration) in the reaction buffer (10 mM Tris-HCl, 150 mM NaCl, pH8) at 37° C. Cleavage reaction was triggered by the addition of MgCl2 and then stopped after different time lengths by the addition of the stop buffer (45% glycerol, 95 mM EDTA, 1.5% (w/v) SDS, 1.5 mg/mL proteinase K and 0.048% (w/v) bromophenol blue, final concentrations). This was followed by one hour incubation at 37° C. to digest I-Cre I and release free DNA molecules. Cleaved and uncleaved DNA products were separated by PAGE using a TGX Any kD precast gel (Bio-Rad), stained with SYBR Green and then quantified using Quantity One software (Bio-Rad). […]

[2] = test system: XPC4 target locus in 293H cells; assay: Meganuclease-induced mutagenesis at XPC4 target locus by deep sequencing, siRNA targeting DNMT1; assay type: cell-based, human; conditions: for mutagenesis, PCR fragments carrying a mutation: XPC4 meganuclease plasmid
Procedure: The human 293H cells (ATCC) were plated at a density of 1.2×10^6 cells per 10 cm dish in complete medium (DMEM supplemented with 2 mM L-glutamine, penicillin (100 IU/ml), streptomycin (100 μg/ml), amphotericin B (Fongizone: 0.25 μg/ml, Invitrogen-Life Science) and 10% FBS). The next day, cells were transfected with 5 μg of empty vector pCLS003 (SEQ ID NO: 65) and 1 nM or 5 nM of si_DNMT1 composed of mixture of two siRNA DNMT1—1 ([…], SEQ ID NO: 66) and DNMT1—2 ([…], SEQ ID NO: 67) or with si_AS, a siRNA control with no known human target, using Lipofectamine 2000 as transfection reagent (Invitrogen) according to the manufacturer's protocol. The day after, cells were re-platted at the density of 1.2×10^6 cells per 10 cm. 24 hours after, cells were transfected again with 1 nM or 5 nM of siDNMT1 or si_AS in presence of 3 μg of meganuclease expressing vector (pCLS2510; SEQ ID NO: 68) and 2 μg of empty vector or 5 μg of empty vector (SEQ ID NO: 65), with Lipofectamine 2000 transfection reagent (Invitrogen) according to the manufacturer's protocol.
After genomic DNA extraction, the XPC4 target locus was amplified with specific primers flanked by specific adaptator needed for HTS sequencing on the 454 sequencing system (454 Life Sciences)
5,000 to 10,000 sequences per sample were analyzed.

Molecule	kcat ([1]; ADCY9.1_Me −3a/−2b (fully methylated)) [s⁻¹]	substrate disappearance ([1]; fully methylated ADCY9.1, even after 5 hours)	kcat ([1]; unmethylated ADCY9.1) [s⁻¹]	mutagenesis, PCR fragments carrying a mutation ([2]; Si_AS 1 nM (control siRNA)) [%]	mutagenesis, PCR fragments carrying a mutation ([2]; Si_AS 5 nM (control siRNA)) [%]	mutagenesis, PCR fragments carrying a mutation ([2]; Si_DNMT1 1 nM) [%]	mutagenesis, PCR fragments carrying a mutation ([2]; Si_DNMT1 5 nM) [%]	PCR fragments carrying a mutation ([2]; XPC4 meganuclease, non relevant siRNA (si_AS))	mutations ([2]; XPC4 meganuclease, samples treated with si_DNMT1)
ADCY9: engineered meganuclease (SEQ ID NO: 3) designed to cleave adenylate cyclase 9 gene (protein) MANTKYNEEFLLYLAGFVDGDGSIIAQIKPNQSYKFKHQLSLTFRVTQKTQRRWFLDKLVDEIGVGYVRDSGSVSNYDLSEIKPLHNFLTQLQPFLELKQKQANLVLKIIEQLPSAKESPDKFLEVCTWVDQVAALNDSKTRKTTSETVRAVLDSLSEKKKSSPAAGGSDKYNQALSKYNQALSKYNQALSGGGGSNKKFLLYLAGFVDSDGSIIAQIKPDQSYKFKHQLGLTFQVTQKTQRRWFLDKLVDRIGVGYVRDRGSVSDYILSEIKPLHNFLTQLQPFLKLKQKQANLVLKIIEQLPSAKESPDKFLEVCTWVDQVAALNDSKTRKTTSETVRAVLDSLSEKKKSSP	<1.7e-06	no substrate disappearance was observed	0.00095 ± 1.7e-05	–	–	–	–	–	–
XPC4: engineered meganuclease (SEQ ID NO: 2) designed to cleave xeroderma pigmentosum group C gene (XPC) (protein) MANTKYNEEFLLYLAGFVDGDGSIIAQIKPNQSHKFKHALQLTFKVTQKTQRRWFLDKLVDEIGVGYVQDSGSVSNYILSEIKPLHNFLTQLQPFLELKQKQANLALKIIEQLPSAKESPDKFLEVCTWVDQVAALNDSKTRKTTSETVRAVLDSLSEKKKSSPAAGGSDKYNQALSKYNQALSKYNQALSGGGGSNKKFLLYLAGFVDSDGSIIAQIKPNQSHKFKHQLSLAFQVTQKTQRRWFLDKLVDRIGVGYVRDRGSVSDYILSKIKPLHNFLTQLQPFLKLKQKQANLVLKIIEQLPSAKESPDKFLEVCTWVDQVAALNDSKTRKTTSETVRAVLDSLSEKKKSSP	–	–	–	0.3	0.2	4.8	7.6	0.2-0.3%	up to 7%
